Data taken from US7838294B2, “Inhibitors of the JNK signal transduction pathway and methods of use” (University of Massachusetts, priority 1997, dated 2010).

Assays:
c-Myc activation domain = assay: GAL4 luciferase reporter assay in CHO cells: c-Myc activation domain; format: cell-based, Chinese hamster; conditions: 48 hours post-transfection, FIG. 4A
Procedure: (§1) In these experiments, CHO cells were cotransfected with constructs encoding the transcription factors and JIP-1 using previously described methods. Dérijard et al., supra; Sluss et al., supra; Gupta et al., supra. A luciferase reporter plasmid was used to monitor the expression of the transcription factors. Transfection efficiency was determined using a β-galactosidase expression vector. Constructs used in these experiments included GAL4 fusions with the c-myc, Sp1 and VP16 activation domains (described in Whitmarsh et al., Science, 269:403 (1995); Davis, Science, 269:403 (1995); Gille et al., Curr. Biol., 5:1191 (1995)). […]
(§2) Transfected cells were activated by treatment with 10% (v/v) fetal calf serum, and luciferase and β-galactosidase activities were measured in cell lysates at 48 hours post-transfection. The data are presented as the ratio of luciferase activity (light units) to β-galactosidase activity (OD units) measured in the cell extracts (mean±SEM (n=3)), and are normalized to the luciferase activity detected in the absence of JBD (FIGS. 4A and 4B) or ATF2 (FIG. 4C).

E1a activation domain = assay: GAL4 luciferase reporter assay in CHO cells: E1a activation domain; format: cell-based, Chinese hamster; conditions: 48 hours post-transfection, FIG. 4A
[1] = system: differentiated PC12 cells; assay: NGF withdrawal-induced apoptosis of differentiated PC12 cells; format: cell-based; conditions: pCDNA3-Flag-JIP-1 (residues 127-281) transfection; 17 hours following NGF withdrawal; FIG. 5
Text: The effect of JIP-1 on this biological response was investigated to determine whether JIP-1 inhibits the biological effects of the JNK signaling pathway. NGF withdrawal-induced apoptosis of differentiated PC12 cells was examined following transfection with the expression vectors pCDNA3 (control) and pCDNA3-Flag-JIP-1 (containing residues 127-281 of JIP-1) using methods described previously. Xia et al., Science, 270:1326 (1995). The percentage of apoptotic cells in the total transfected cell population was blind-scored and quantitated. This assay scores adherent cells with an apoptotic morphology at 17 hours following NGF withdrawal. Cells that have completed apoptosis are nonadherent and are not scored. Thus, while the cumulative extent of apoptosis is large (100%), lower numbers of apoptotic cells are detected at a single time point.

Sp1 activation domain = assay: GAL4 luciferase reporter assay in CHO cells: Sp1 activation domain; format: cell-based, Chinese hamster; conditions: 48 hours post-transfection, FIG. 4A
Procedure: as §1, §2

[2] = system: ATF2 transcriptional activity; assay: GAL4 luciferase reporter assay in CHO cells: GAL4-ATF2; format: cell-based, Chinese hamster; conditions: GAL4-ATF2 reporter, CHO cells, FIG. 4C
Procedure: In these experiments, CHO cells were cotransfected with constructs encoding the transcription factors and JIP-1 using previously described methods. Dérijard et al., supra; Sluss et al., supra; Gupta et al., supra. A luciferase reporter plasmid was used to monitor the expression of the transcription factors. Transfection efficiency was determined using a β-galactosidase expression vector. Constructs used in these experiments included GAL4 fusions with the c-myc, Sp1 and VP16 activation domains (described in Whitmarsh et al., Science, 269:403 (1995); Davis, Science, 269:403 (1995); Gille et al., Curr. Biol., 5:1191 (1995)). Other constructs used were GAL4-c-Jun, in which GAL4 is fused to c-Jun; GAL4-c-Jun (S63A/S73A), in which GAL4 is fused to a mutant c-Jun in which the serines at positions 63 and 73 have been changed to alanines; GAL4-ATF2, in which GAL4 is fused to wild type ATF2 (ATF2(Thr-69, 71)); GAL4-ATF2 (T69A/T71A) (ATF2(Ala-69/71)), in which GAL4 has been fused to a mutant ATF2 in which the […] at positions 69 and 71 have been changed to alanines; GAL4-Elk-1, in which GAL4 has been fused to Elk-1; and GAL4-Elk-1 (S383A), in which GAL4 has been fused to a mutant Elk-1 in which the serine at position 383 has been changed to an alanine. Gupta et al., EMBO J, 15:2760-2770 (1996); Raingeaud et al., Mol. Cell. Biol., 16:1247-1255 (1996); Whitmarsh et al. Science, 269:403-407 (1995).
Insertional overlapping PCR, described in detail in Ho, supra, was used to construct expression vectors for the JNK binding domain (JBD; amino acid residues 127-281) of JIP-1 and for a mutant JIP-1 lacking the SH3 (amino acid residues 491-540) domain.
as §2

VP16 activation domain = assay: GAL4 luciferase reporter assay in CHO cells: VP16 activation domain; format: cell-based, Chinese hamster; conditions: 48 hours post-transfection, FIG. 4A
Procedure: as §1, §2

JNK = JNK activation by v-ABL or BCR-ABL in transfected 293 cells (immune complex kinase assay); format: cell-based; conditions: co-expression in 293 cells; GST-Jun substrate
Text: The BCR-ABL oncogene, which is associated with chronic myelogenous leukemia (CML), causes JNK activation in the absence of increased ERK activity. Raitano et al., Proc. Natl. Acad. Sci. USA, 92:11746 (1995). Oncogenic transformation by BCR-ABL may be mediated in part by the JNK signaling pathway. Since JIP-1 can inhibit JNK activity, the effect of JIP-1 expression on oncogenic transformation was examined. Plasmid vectors expressing v-ABL or BCR-ABL and Flag-tagged JBD (residues 127-281) of JIP-1 were used to transfect 293 cells. JNK activity was then measured in an immune complex kinase assay of lysates of the transfected 293 cells, using a polyclonal JNK antibody and GST-Jun as the substrate. […] JIP-1 can therefore inhibit BCR-ABL-mediated activation of JNK.

[3] = system: primary mouse marrow cells (pre-B cells); assay: Bone marrow transformation assay: pre-B cell transformation by BCR-ABL retrovirus; format: cell-based; conditions: bicistronic retrovirus, JBD in sense orientation (not anti-sense); day 10 post infection; FIG. 6
Procedure: To examine the effect of JIP-1 on BCR-ABL-mediated cellular transformation, bone marrow transformation assays were performed using recombinant retroviruses packaged with 293T cells as described in Sawyers et al., J. Exp. Med., 181:307 (1995). Bicistronic retroviruses expressing BCR-ABL, alone, or in combination with the Flag-tagged JBD (residues 127-281) of JIP-1, were prepared by subcloning p185BCR-ABL into the ClaI site of pSRαTK, downstream of the internal TK promoter, to create pSRαMSVTKp185. The JBD was subcloned into the upstream EcoRI site in the sense and antisense orientations.
The recombinant retroviruses were then used to infect primary mouse marrow cells, and the transformation of pre-B cells was monitored in culture. […] The data shown are derived from three independent experiments plated in triplicate. As expected, BCR-ABL caused pre-B cell transformation.

B1: JBD: JNK binding domain of JIP-1, residues 127-281, expressed (Flag-tagged) in cells (protein)
chain: PKAESNQDPAPRSQGQGPGTGSGDTYRPKRPTTLNLFPQVPRSQDTLNNNSLGKKHSWQDRVSRSSSPLKTGEQTPPHEHICLSDELPPQGSPVPTQDRGTSTDSPCRRSAATQMAPPSGPPATAPGGRGHSHRDRIHYQADVRLEATEEIYLTP
modifications: Flag tag
c-Myc activation domain
  reporter gene expression mediated by c-Myc activation domain: did not inhibit
E1a activation domain
  reporter gene expression mediated by E1a activation domain: did not inhibit
[1]
  apoptosis following NGF-withdrawal: markedly reduced
Sp1 activation domain
  reporter gene expression mediated by Sp1 activation domain: did not inhibit
[2]
  JNK-regulated gene expression: inhibition
VP16 activation domain
  reporter gene expression mediated by VP16 activation domain: did not inhibit
JNK
  constitutive JNK activation caused by v-ABL and BCR-ABL: blocked
[3]
  pre-B cell transformation by BCR-ABL: marked inhibition
